According to patent US20020009436A1, “Methods and compositions for inhibiting adhesion by microorganisms” (priority 1999, published 2002):

Columns and labels:
P. gingivalis = test: Hemagglutination assay of periodontopathogens, P. gingivalis; assay type: cell-based, Porphyromonas gingivalis; design: key: + Hemagglutination; − No hemagglutination; details: sheep blood, polyphenol oxidase 90 U/ml or asparaginase 20 U/ml, 90 min
Procedure: (§1) The hemagglutinations were carried out in 96 microwell (Nunc) plates in which 50 μl of 1% suspension of sheep blood and 50 μl of serially diluted cells suspension in phosphate buffered (10 mM Na2HPO4, 10 mM KH2PO4, 150 mM NaCl, 3 mM KCl) were added. The cells were adjusted at 1.4 OD at 540 nm. All the strains were treated in NaCl-free buffer with polyphenol oxidase (90 U/ml) or asparaginase (20 U/ml) for 90 min at 37° C. before hemagglutination.

F. nucleatum = test: Hemagglutination assay of periodontopathogens, F. nucleatum; assay type: cell-based, Fusobacterium nucleatum; design: key: + Hemagglutination; − No hemagglutination; details: sheep blood, polyphenol oxidase 90 U/ml or asparaginase 20 U/ml, 90 min
Procedure: as §1

[1] = system: Type 1-fimbriated E. coli; test: Flow cytometric adhesion of type 1-fimbriated E. coli to UECs; assay type: cell-based
Source text: Methods for handling polyphenol oxidase and asparaginase and for observing adhesion by microorganisms were generally as described in the previous Examples with variations to adapt these methods to epithelial cells.
The bacteria were labeled intracellularly with the fluorescein dye CFDA-SE. Median fluorescence intensity of the UECs was taken as a measure of the number of bacteria attached to them. In the Figures below, median fluorescence is converted to % adhesion using control conditions (UEC+untreated bacteria) as 100%.

B1: asparaginase: enzyme that catalyzes hydrolysis of the side chain amide group of asparagine to a carboxyl group; E. coli asparaginase (protein, UniProt P00805 23-348, looked up)
L-asparaginase 2: LPNITILATGGTIAGGGDSATKSNYTVGKVGVENLVNAVPQLKDIANVKGEQVVNIGSQDMNDNVWLTLAKKINTDCDKTDGFVITHGTDTMEETAYFLDLTVKCDKPVVMVGAMRPSTSMSADGPFNLYNAVVTAADKASANRGVLVVMNDTVLDGRDVTKTNTTDVATFKSVNYGPLGYIHNGKIDYQRTPARKHTSDTPFDVSKLNELPKVGIVYNYANASDLPAKALVDAGYDGIVSAGVGNGNLYKSVFDTLATAAKTGTAVVRSSRVPTGATTQDAEVDDAKYGFVASGTLNPQKARVLLQLALTQTKDPQQIQQIFNQY
- Hemagglutination (P. gingivalis; dilution 1/2): −
- Hemagglutination (P. gingivalis; dilution 1/8): −
- Hemagglutination (P. gingivalis; dilution 1/16): −
- Hemagglutination (P. gingivalis; dilution 1/32): −
- Hemagglutination (P. gingivalis; dilution 1/64): −
- Hemagglutination (P. gingivalis; dilution 1/128): −
- Hemagglutination (P. gingivalis; dilution 1/256): −
- Hemagglutination (P. gingivalis; dilution 1/512): −
- Hemagglutination (F. nucleatum; dilution 1/2): +
- Hemagglutination (F. nucleatum; dilution 1/8): +
- Hemagglutination (F. nucleatum; dilution 1/16): +
- Hemagglutination (F. nucleatum; dilution 1/32): +
- Hemagglutination (F. nucleatum; dilution 1/64): +
- Hemagglutination (F. nucleatum; dilution 1/128): −
- Hemagglutination (F. nucleatum; dilution 1/256): −
- Hemagglutination (F. nucleatum; dilution 1/512): −
- decrease in adhesion to UECs ([1]; asparaginase <2 units/ml): 13%
- decrease in adhesion to UECs ([1]; asparaginase >2 units/ml): 85-90%
- prevention of adhesion to UECs ([1]; asparaginase singly, 10 units/ml): 90%
- reduction in adhesion to UECs ([1]; bacteria first incubated with MUMB 50 mM, then polyphenol oxidase 141 units/ml or asparaginase 10 units/ml): 50%
- increase in adhesion to UECs ([1]; mannopyranoside 50 mM followed by asparaginase 10 units/ml): 40%
